Biological target: full-length 13-lined ground squirrel TRPV1 (13-lined ground squirrel (Ictidomys tridecemlineatus))
Experiment: cryo-EM structure; purified sqTRPV1 in 150 mM NaCl, 20 mM Tris pH 8.0, 1 mM βME, 0.01% GDN; apo, with 50 μM RTX or with 300 μM capsaicin

stoichiometry N: 4 subunits
Substance: full-length 13-lined ground squirrel TRPV1 (natural protein)

Reference: article PMC8041747
